Where a chain is given by its changes, count along the chain named.
B1: A-22 (antibody, V domains shown)
VH: not shown
VL: EIVLTQSPGTLSLSPGERATLSCRASQTVRSDLAWYQQKPGQAPRLLIYGASTRATDISDRFSGSGSGTEFTLTISSLQSEDFAVYYCQQYYEWPPHSDSFGGGTKVEIK
B2: A-20 (antibody, V domains shown)
VH: QVQLVESGGGVVQPGRSLRLSCAASGFTFSNFAMHWVRQAPGKGLEWVAVILYDGINKYYADSVKGRFTISRGNSKNTLSLQMNSLRAEDTAVYYCARAQNYYDRSGTLQLDAFDIWGQGTLVTVSS
VL: AIQMTQSPSSLSASVGDRVTITCRASQGIRNDLGWYQQKPGKAPKLLIYAASSLQSGVPSRFSGSGSGTDFTLTISSLQPEDFATYYCLQDYNYPLTFGGGTKVEIK
B3: A-6 (antibody, V domains shown)
VH: B2 VH with E6Q, L122M
VL: B2 VL with A1D, Q3V
B4: A-20.1 (antibody, V domains shown)
VH: B2 VH
VL: B2 VL with R24V, A50E, Q55E
B5: A-16 (antibody, V domains shown)
VH: QVQLVESGGGLVQPGRSLRLSCAASGFTFDDYAMHWVRQAPGKGLEWVSGISWNSGTIGYADSVKGRFIISRDNAKNSLYLQMNSLRGEDMALYYCGKDRKREDPSLGGMDVWGQGTTVTVSS
VL: SYELTQPPSVSVAPGQTARITCGGNNIGSKSVHWYQQKPGQAPVLVVYDDTDRPSGIPERFSGSNSGNTATLTISRVEAGDEADYYCQVWDSSSDHYVFGTGTKLTVL
B6: A-23.2 (antibody, V domains shown)
VH: B5 VH with Q1E, I51T, G97V
VL: B5 VL with E3V, S92V, H96S, L105V
B7: A-23.3 (antibody, V domains shown)
VH: B5 VH with Q1E, I51T, G97V
VL: B5 VL with E3V, H96D, L105V

Experiments:
[1] = molecular target: SARS-CoV-2 Alpha (B.1.1.7) spike protein (on reporter virus particles) (SARS-CoV-2, UniProt P0DTC2 14-1273); test: cell-based or functional assay
[2] = molecular target: SARS-CoV-2 Beta (B.1.351) spike protein (on reporter virus particles) (SARS-CoV-2, UniProt P0DTC2 14-1273); test: cell-based or functional assay
[3] = molecular target: SARS-CoV-2 Epsilon (B.1.427/429) spike protein (on reporter virus particles) (SARS-CoV-2, UniProt P0DTC2 14-1273); test: cell-based or functional assay
[4] = molecular target: SARS-CoV-2 Gamma (P.1) spike protein (on reporter virus particles) (SARS-CoV-2, UniProt P0DTC2 14-1273); test: cell-based or functional assay
[5] = molecular target: SARS-CoV-2 B.1.1.7 N501Y (Alpha) RBD (SARS-CoV-2, UniProt P0DTC2 319-541); test: Octet BLI single point, monovalent
[6] = molecular target: SARS-CoV-2 B.1.351 (Beta) RBD (SARS-CoV-2, UniProt P0DTC2 319-541); test: Octet BLI single point, monovalent
[7] = molecular target: SARS-CoV-2 P.1 Spike (Gamma) (SARS-CoV-2, UniProt P0DTC2 16-1213); test: Octet BLI single point, monovalent
[8] = molecular target: SARS-CoV-2 L452R RBD (Epsilon) (SARS-CoV-2, UniProt P0DTC2 319-541); test: Octet BLI single point, monovalent
[9] = molecular target: SARS-CoV-2 B.1.617.1 (Kappa) RBD (SARS-CoV-2, UniProt P0DTC2 319-541); test: Octet BLI single point, monovalent
[10] = molecular target: SARS-CoV-2 Variant B.1.17 N501Y S1-His (SARS-CoV-2, UniProt P0DTC2 16-685); test: Octet BLI, IgG, monovalent
SARS-CoV-2 RBD-mFc = SARS-CoV-2 RBD-mFc (SARS-CoV-2, UniProt P0DTC2 319-541); test: Octet BLI, IgG, avid
[11] = molecular target: SARS-CoV-2 Omicron (B.1.529) spike protein (on reporter virus particles) (SARS-CoV-2, UniProt P0DTC2 14-1273); test: cell-based or functional assay

Row | Binder | PsV neutralization IC50 [1] [µg/mL] | PsV neutralization IC90 [1] [µg/mL] | PsV neutralization IC50 [2] [µg/mL] | PsV neutralization IC90 [2] [µg/mL] | Kd [5] [nM] | Kd [7] [nM] | Kd [10] [nM] | also measured
1 | B1 | 1.53 | 9.54 | 2.13 | 12.8 | 0.35 | 0.258 |  | PsV neutralization IC50 [3]: 1.49 µg/mL; PsV neutralization IC90 [3]: 25.3 µg/mL; PsV neutralization IC50 [4]: 0.335 µg/mL; PsV neutralization IC90 [4]: 0.736 µg/mL; Kd [6]: 0.25 nM; Kd [8]: 0.756 nM; Kd [9]: 0.218 nM
2 | B2 |  |  |  |  |  |  | 2.57 | 
3 | B3 | 0.192 | 1.21 | 0.171 | 1.47 | 1.46 | 2.05 |  | Kd (SARS-CoV-2 RBD-mFc): 0.146 nM; Kd [8]: 1.45 nM
4 | B4 |  |  |  |  |  |  | 0.604 | 
5 | B5 | 0.025 | 0.329 | 0.103 | 0.905 | 4.62 | 4.83 |  | Kd (SARS-CoV-2 RBD-mFc): 0.081 nM; PsV IC50, Test 1 [11]: 0.19 nM; Kd [6]: 6.05 nM
6 | B6 |  |  |  |  |  |  | 0.242 | 
7 | B7 |  |  |  |  |  |  | 0.286 | 

— patent publication US20260217797A1 (Takeda / Millennium, published 2026)
